ECL signal and ECL signal/noise ratio data for three molecules are collected here from patent US20120316071A1 (published 2012).

Assay [1] addresses T1, rHuman HGF R/c-MET/Fc Chimera, CF (R&D Systems Cat#358-MT/CF) (human, UniProt P08581 25-932).
T1 construct: Bought reagent; also called HGF R/Fc; hepatocyte growth factor receptor; Fc part of the bought chimera not given
In words: ECL Multispot (MSD) assay, antigen spotted on plate, 10 nM Fab; blank spot of this row 487.

Assay [2] deals with T2, rHuman EGF R/Fc Chimera, CF (R&D Systems Cat#344-ER) (human, UniProt P00533 25-645).
T2 construct: Bought reagent; also called epidermal growth factor receptor; Fc part of the bought chimera not given
The assay is described as above.

In assay [3] the target is T3, rHuman IGF-1 sR, CF (R&D Systems Cat#391-GR) (human, UniProt P08069 31-932).
T3 construct: Bought soluble receptor; The column head prints only 'IGF-1'; also called insulin-like growth factor-1 soluble receptor
The assay is described as above.

The target of assay [4] is T4, rHuman Erythropoietin R/Fc Chimera, CF (R&D Systems Cat#963-ER) (human, UniProt P19235 25-250).
T4 construct: Bought reagent; also called EPO R; EPO R/Fc; Fc part of the bought chimera not given
T4 sequence (looked up): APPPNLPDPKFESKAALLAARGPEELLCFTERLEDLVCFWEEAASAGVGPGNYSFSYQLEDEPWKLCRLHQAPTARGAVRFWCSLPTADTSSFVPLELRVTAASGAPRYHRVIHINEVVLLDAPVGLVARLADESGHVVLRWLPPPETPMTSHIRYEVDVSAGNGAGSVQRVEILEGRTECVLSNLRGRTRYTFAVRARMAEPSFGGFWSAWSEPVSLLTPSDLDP
The description is as above.

In assay [5] the target is T5, rHuman Notch-1/Fc Chimera, CF (R&D Systems Cat#3647-TK) (human, UniProt P46531 19-526).
T5 construct: Bought reagent; Fc part of the bought chimera not given
The assay is described as above.

In assay [6] the target is T6, rHuman Erythropoietin R/Fc Chimera, CF (R&D Systems Cat#963-ER) (human, UniProt P19235 25-250).
T6 construct: Bought recombinant protein; also called EPO R; EPO R/Fc; Fc part of the bought chimera not given
T6 sequence (looked up): T4 sequence (looked up)
In words: ECL multispot (MSD) assay, spotted antigen; Fab 2.00 (head prints uM).

Assay [7] addresses T7, rHuman EGF R/Fc Chimera, CF (R&D Systems Cat#344-ER) (human, UniProt P00533 25-645).
T7 construct: Bought recombinant protein; Fc part of the bought chimera not given
The description is as above.

Assay [8] has as its target T8, rHuman IGF-1 sR, CF (R&D Systems Cat#391-GR) (human, UniProt P08069 31-932).
T8 construct: Bought soluble receptor; The column head prints only 'IGF-1'; also called insulin-like growth factor-1 soluble receptor
The description is as above.

The target in assay [9] is T9, Recombinant Human DLL4 (R&D Systems Cat#1506-D4/CF) (human, UniProt Q9NR61 27-524).
T9 construct: Bought recombinant protein; also called delta-like protein 4
Described as above.

Assay [10] concerns the target T10, rHuman Notch-1/Fc Chimera, CF (R&D Systems Cat#3647-TK) (human, UniProt P46531 19-526).
T10 construct: Bought recombinant protein; Fc part of the bought chimera not given
The description is as above.

The target in assay [11] is T11, rHuman CD44/Fc Chimera, CF (R&D Systems Cat#3660-CD) (human, UniProt P16070 21-220).
T11 construct: Bought recombinant protein; Fc part of the bought chimera not given
The description is as above.

Assay [12] concerns the target T12, Recombinant Human DLL4 (R&D Systems Cat#1506-D4/CF) (human, UniProt Q9NR61 27-529).
T12 construct: Bought recombinant protein; also called rHuman DLL4; delta-like protein 4
Nature of the assay: MSD Multispot ECL, antigen spotted on plate, Fab 2.0 nM; blank spot 316.

For assay [13], the target named is T13, rHuman HGF R/c-MET/Fc Chimera, CF (R&D Systems Cat#358-MT/CF) (human, UniProt P08581 25-932).
T13 construct: Bought reagent; also called HGF R/Fc; hepatocyte growth factor receptor; Fc part of the bought chimera not given
The assay is described as above.

For assay [14], the target named is T14, rHuman CD44/Fc Chimera, CF (R&D Systems Cat#3660-CD) (human, UniProt P16070 21-220).
T14 construct: Bought reagent; Fc part of the bought chimera not given
The assay is described as above.

Assay [15] addresses T15, rHuman EGF R/Fc Chimera, CF (R&D Systems Cat#344-ER) (human, UniProt P00533 25-645).
T15 construct: Bought reagent; also called epidermal growth factor receptor; Fc part of the bought chimera not given
The description is as above.

Assay [16] concerns the target T16, rHuman IGF-1 sR, (IGF-1 sR), CF (R&D Systems Cat#391-GR) (human, UniProt P08069 31-932).
T16 construct: Bought soluble receptor; also called insulin-like growth factor-1 soluble receptor
Described as above.

Assay [17] concerns the target T17, rHuman Erythropoietin R/Fc Chimera, CF (R&D Systems Cat#963-ER) (human, UniProt P19235 25-250).
T17 construct: Bought reagent; also called EPO R/Fc; EPO R; Fc part of the bought chimera not given
T17 sequence (looked up): T4 sequence (looked up)
The description is as above.

The target in assay [18] is T18, rHuman ErbB2/Fc Chimera, CF (R&D Systems Cat#1129-ER) (human, UniProt P04626 23-652).
T18 construct: Bought reagent; also called human epidermal growth factor 2 receptor; Fc part of the bought chimera not given
The description is as above.

Assay [19] deals with T19, rHuman Notch-1/Fc Chimera, CF (R&D Systems Cat#3647-TK) (human, UniProt P46531 19-526).
T19 construct: Bought reagent; Fc part of the bought chimera not given
The assay is described as above.

B1: Fab VH1-46_IGHD6-6*01_IGHJ1*01 S102A/S103P/S104F (APF) & L6_IGKJ1*01 (Fab, V domains shown)
VH: QVQLVQSGAEVKKPGASVKVSCKASGYTFTSYYMHWVRQAPGQGLEWMGIINPSGGSTSYAQKFQGRVTMTRDTSTSTVYMELSSLRSEDTAVYYCAREEYAPFSAEYFQHWGQGTLVTVSS
VL: not shown
notes: Tested as a Fab made in E. coli; also called H:APF & L:wt; APF triple mutant
On to B1, for which the ECL signal was 379 in assay [1]; 206 in assay [2]; 453 in assay [3]; 326 in assay [4]; 450 in assay [5].

B2: Fab VH5-51_IGHD5-18*01>3_IGHJ4*01 G100K/G104T & V3-4_IGLJ1*01 (Fab, V domains shown)
VH: EVQLVQSGAEVKKPGESLKISCKGSGYSFTSYWIGWVRQMPGKGLEWMGIIYPGDSDTRYSPSFQGQVTISADKSISTAYLQWSSLKASDTAMYYCARRKYSYTYDYFDYWGQGTLVTVSS
VL: QTVVTQEPSFSVSPGGTVTLTCGLSSGSVSTSYYPSWYQQTPGQAPRTLIYSTNTRSSGVPDRFSGSILGNKAALTITGAQADDESDYYCVLYMGSGISYVFGTGTKVTVL
notes: Tested as a Fab; The constant parts are the same as for the parent Fab (CH1 with His6/Flag tags, lambda CL); also called KT double mutant; H:KT
For the molecule B2, the ECL signal/noise ratio in assay [6] came to 4.1; in assay [7], 3.8; in assay [8] it was 3.7; in assay [9], 72.7; in assay [10], 1.9; in [11] it was 3.5.

B3: Fab VH1-8_IGHD2-2*01_IGHJ6*01 & L12_IGKJ1*01 (Fab, V domains shown)
VH: QVQLVQSGAEVKKPGASVKVSCKASGYTFTSYDINWVRQATGQGLEWMGWMNPNSGNTGYAQKFQGRVTMTRNTSISTAYMELSSLRSEDTAVYYCARGGYCSSTSCYADYYYYYGMDVWGQGTTVTVSS
VL: not shown
Turning to B3, the ECL signal in assay [12] was 605; in assay [13] it was 356; in assay [14] it was 447; in assay [15], 424; in assay [16] it was 367; in assay [17] it was 433. The ECL signal amounted to 382 in assay [18] and 539 in [19].
